Several values for one entry are separate records, joined by “and”; a condition that tells them apart may be missing. Identical values can stand only once.
How the values were obtained:
HGF (HGF-His tag) = molecular target: T1, HGF (HGF-His tag) (UniProt P14210 32-728); test: Direct Bind ELISA, antigen on plate
T1 construct: Bought reagent

IGF1R ECD = molecular target: T2, IGF1R ECD (UniProt P08069 31-935, limits assumed); test: Direct Bind ELISA, antigen on plate
T2 construct: extracellular domain; Bought reagent

[1] = molecular target: T3, IGF1R (antigen of the capture ELISA table) (UniProt P08069 31-932, limits assumed); test: antigen capture ELISA, IGF1R
T3 construct: No IGF1R capture ELISA method is described; also called IGFR

[2] = molecular target: T4, biotin-labeled human IGF2 (human, UniProt P01344 25-91, biotin-labeled); test: capture ELISA, antibody captured by anti-human Fc, biotin-labeled IGF2
[3] = molecular target: T5, biotin-labeled human IGF1 (human, UniProt P05019 49-118, biotin-labeled); test: capture ELISA, antibody captured by anti-human Fc, biotin-labeled IGF1
IGF2 (IGF-2) = molecular target: T6, IGF2 (IGF-2) (UniProt P01344 25-91); test: Direct Bind ELISA, antigen on plate; second value of IGF1/IGF2 cell
T6 construct: Bought reagent

IGF1 (IGF-I) = molecular target: T7, IGF1 (IGF-I) (UniProt P05019 49-118); test: Direct Bind ELISA, antigen on plate; first value of IGF1/IGF2 cell
T7 construct: Bought reagent

[4] = molecular target: T8, biotin-labeled human DLL4 extracellular domain (human, UniProt Q9NR61 27-529, biotin-labeled); test: capture ELISA, antibody captured by anti-human Fc, biotin-labeled human DLL4 ECD
T8 construct: extracellular domain

[5] = molecular target: T8, biotin-labeled human DLL4 extracellular …; test: DLL4 capture ELISA, antibody captured by anti-human Fc, biotin-labeled human DLL4 ECD
PlGF = molecular target: T9, PlGF (UniProt P49763-2 21-149, limits assumed); test: direct bind ELISA, antigen on plate; reference antibody
T9 construct: Bought antigen coated on the ELISA plate; also called Placental GF; placental growth factor
T9 sequence (looked up): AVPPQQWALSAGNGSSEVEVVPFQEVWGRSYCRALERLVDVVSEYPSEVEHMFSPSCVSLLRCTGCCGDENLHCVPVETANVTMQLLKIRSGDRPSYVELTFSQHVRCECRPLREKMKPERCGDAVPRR

[6] = molecular target: T8, biotin-labeled human DLL4 extracellular …; test: capture ELISA, DVD-Ig captured by anti-human Fc, biotin-labeled human DLL4 ECD; C-terminal VD
biotinylated VEGF = biotinylated VEGF (UniProt P15692-4 27-191, limits assumed, biotinylated); test: capture ELISA, DVD-Ig captured by anti-human Fc, biotinylated VEGF; N-terminal VD
[7] = molecular target: T10, his-tagged, recombinant RON protein (R&D Systems # 1947-MS) (UniProt Q04912 25-957, limits assumed); test: IgG-Fc capture ELISA, his-tagged RON; N-terminal VD
T10 construct: extracellular domain; also called MSP Receptor ECD-His tag

[8] = molecular target: T5, biotin-labeled human IGF1; test: capture ELISA, DVD-Ig captured by anti-human Fc, biotin-labeled IGF1; C-terminal VD
[9] = molecular target: T4, biotin-labeled human IGF2; test: capture ELISA, DVD-Ig captured by anti-human Fc, biotin-labeled IGF2; C-terminal VD
VEGF = molecular target: T11, VEGF (UniProt P15692 27-191, limits assumed); test: direct bind ELISA, antigen on plate; reference antibody
T11 construct: Bought antigen coated on the ELISA plate; also called vascular endothelial growth factor

VEGF 1-165 aa = molecular target: T12, VEGF 1-165 aa (UniProt P15692 27-191); test: direct bind ELISA (ref Ab)
T12 construct: Bought antigen coated on the ELISA plate

[10] = molecular target: T13, RON (MSP Receptor ECD-His tag) (UniProt Q04912 25-957, limits assumed); test: Direct Bind ELISA, antigen on plate
T13 construct: extracellular domain; Bought reagent

[11] = molecular target: T10, his-tagged, recombinant RON protein …; test: IgG-Fc capture ELISA, his-tagged RON

T12 sequence (P15692 other isoform, or with tags, fused parts or gaps limits assumed): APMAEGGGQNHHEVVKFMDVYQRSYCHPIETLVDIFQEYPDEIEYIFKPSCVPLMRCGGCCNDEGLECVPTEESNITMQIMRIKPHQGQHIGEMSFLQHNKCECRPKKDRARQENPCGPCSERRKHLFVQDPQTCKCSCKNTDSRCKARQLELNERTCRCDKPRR
T1 sequence (P14210 32-728 limits assumed): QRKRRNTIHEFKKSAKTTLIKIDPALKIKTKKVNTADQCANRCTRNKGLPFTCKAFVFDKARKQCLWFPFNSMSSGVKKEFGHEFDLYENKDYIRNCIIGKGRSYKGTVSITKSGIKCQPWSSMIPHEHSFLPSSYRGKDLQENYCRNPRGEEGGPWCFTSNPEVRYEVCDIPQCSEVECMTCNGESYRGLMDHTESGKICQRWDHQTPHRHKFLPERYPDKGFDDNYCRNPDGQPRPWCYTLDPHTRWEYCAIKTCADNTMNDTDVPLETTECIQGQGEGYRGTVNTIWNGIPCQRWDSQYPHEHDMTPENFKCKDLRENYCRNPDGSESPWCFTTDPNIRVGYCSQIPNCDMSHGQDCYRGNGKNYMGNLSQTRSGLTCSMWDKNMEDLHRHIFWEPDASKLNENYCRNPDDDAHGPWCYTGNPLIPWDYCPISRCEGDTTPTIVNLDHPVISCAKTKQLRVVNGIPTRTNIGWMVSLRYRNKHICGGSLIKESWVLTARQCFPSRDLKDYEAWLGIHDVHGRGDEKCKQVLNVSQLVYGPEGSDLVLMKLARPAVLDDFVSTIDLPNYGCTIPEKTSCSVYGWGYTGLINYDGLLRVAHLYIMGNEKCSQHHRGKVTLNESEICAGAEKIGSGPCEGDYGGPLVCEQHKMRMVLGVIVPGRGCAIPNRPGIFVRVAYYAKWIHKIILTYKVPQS
biotinylated VEGF, sequence (P15692 other isoform, or with tags, fused parts or gaps limits assumed): as the sequence (P15692 other isoform, or with tags, fused parts or gaps limits assumed) above
T11 sequence (P15692 other isoform, or with tags, fused parts or gaps limits assumed): as above

B1: AB012 (anti-HGF (seq. 1) parent antibody) (antibody, IgG1, V domains shown)
VH: QVQLVESGGGLVKPGGSLRLSCAASGFTFSDYYMSWIRQAPGKGLEWVSYISSSGSTIYYADSVKGRFTISRDNAKNSLYLQMNSLRAEDTAVYYCARDEYNSGWYVLFDYWGQGTLVTVSS
VL: DIQMTQSPSSVSASVGDRVTITCRASQGISSWLAWYQQKPGKAPNLLIYEASSLQSGVPSRFGGSGSGTDFTLTISSLQPEDFATYYCQQANGFPWTFGQGTKVEIKR
notes: HC vector V1 (wild-type hIgG1 constant), LC vector V2 (kappa constant); also called AB012VH; AB012VL
HGF (HGF-His tag)
  EC50: 0.22 nM and 0.19 nM

B2: AB011 (anti-IGF1R (seq. 1) parent antibody) (antibody, IgG1, V domains shown)
VH: EVQLLESGGGLVQPGGSLRLSCTASGFTFSSYAMNWVRQAPGKGLEWVSAISGSGGTTFYADSVKGRFTISRDNSRTTLYLQMNSLRAEDTAVYYCAKDLGWSDSYYYYYGMDVWGQGTTVTVSS
VL: DIQMTQFPSSLSASVGDRVTITCRASQGIRNDLGWYQQKPGKAPKRLIYAASRLHRGVPSRFSGSGSGTEFTLTISSLQPEDFATYYCLQHNSYPCSFGQGTKLEIKR
notes: HC vector V1 (wild-type hIgG1 constant), LC vector V2 (kappa constant); also called AB011VH; AB011VL
IGF1R ECD
  EC50: 0.28 nM

B3: AB011 (antibody, human IgG1, kappa, V domains shown)
VH: EVQLLESGGGLVQPGGSLRLSCTASGFTFSSYAMNWVRQAPGKGLEWVSAISGSGGTTFYADSVKGRFTISRDNSRTTLYLQMNSLRAEDTAVYYCAKDLGWSDSYYYYYGMDVWGQGTTVTVSS
VL: DIQMTQFPSSLSASVGDRVTITCRASQGIRNDLGWYQQKPGKAPKRLIYAASRLHRGVPSRFSGSGSGTEFTLTISSLQPEDFATYYCLQHNSYPCSFGQGTKLEIKR
[1]
  EC50: 0.3 nM

B4: AB010 (antibody, human IgG1, lambda, V domains shown)
VH: QVQLVQSGAEVKKPGASVKVSCKASGYTFTSYDINWVRQATGQGLEWMGWMNPNSGNTGYAQKFQGRVTMTRNTSISTAYMELSSLRSEDTAVYYCARDPYYYYYGMDVWGQGTTVTVSS
VL: QSVLTQPPSVSAAPGQKVTISCSGSSSNIENNHVSWYQQLPGTAPKLLIYDNNKRPSGIPDRFSGSKSGTSATLGITGLQTGDEADYYCETWDTSLSAGRVFGGGTKLTVLG
notes: also called IGF1,2 parent antibody
[2]
  EC50: 10 nM and 18.1 nM
[3]
  EC50: 4.8 nM

B5: AB010 (anti-IGF1,2 parent antibody) (antibody, IgG1, V domains shown)
VH: QVQLVQSGAEVKKPGASVKVSCKASGYTFTSYDINWVRQATGQGLEWMGWMNPNSGNTGYAQKFQGRVTMTRNTSISTAYMELSSLRSEDTAVYYCARDPYYYYYGMDVWGQGTTVTVSS
VL: QSVLTQPPSVSAAPGQKVTISCSGSSSNIENNHVSWYQQLPGTAPKLLIYDNNKRPSGIPDRFSGSKSGTSATLGITGLQTGDEADYYCETWDTSLSAGRVFGGGTKLTVLG
notes: HC vector V1 (wild-type hIgG1 constant), LC vector V3 (lambda constant); also called AB010VH; AB010VL
IGF2 (IGF-2)
  EC50: 10 nM and 18.1 nM
IGF1 (IGF-I)
  EC50: 4.77 nM

B6: AB015 (antibody, human IgG1, kappa)
heavy: not shown
light: DIQMTQSPSSLSASVGDRVTITCRASQDVSTAVAWYQQKPGKAPKLLIYSASFLYSGVPSRFSGSGSGTDFTLTISSLQPEDFATTYYCQQSYTGTVTFGQGTKVEIKRTVAAPSVFIFPPSDEQLKSGTASVVCLLNNFYPREAKVQWKVDNALQSGNSQESVTEQDSKDSTYSLSSTLTLSKADYEKHKVYACEVTHQGLSSPVTKSFNRGEC
[4]
  EC50: 0.03 nM
[5]
  EC50: 0.15 nM and 0.18 nM and 0.14 nM

B7: AB047 (antibody, human IgG1, kappa, V domains shown)
VH: QVQLQQSGAELVKPGASVKISCKASGYTFTDYYINWVKLAPGQGLEWIGWIYPGSGNTKYNEKFKGKATLTIDTSSSTAYMQLSSLTSEDTAVYFCVRDSPFFDYWGQGTLLTVSS
VL: DIVLTQSPDSLAVSLGERVTMNCKSSQSLLNSGMRKSFLAWYQQKPGQSPKLLIYWASTRESGVPDRFTGSGSGTDFTLTISSVQAEDVAVYYCKQSYHLFTFGSGTKLEIKR
notes: also called AB047VH; AB047VL
PlGF
  EC50: 0.13 nM and 0.14 nM

B8: DVD043 (bispecific antibody, human IgG1, kappa)
heavy: not shown
light: DIQMTQSPSSLSASVGDRVTITCSASQDISNYLNWYQQKPGKAPKVLIYFTSSLHSGVPSRFSGSGSGTDFTLTISSLQPEDFATYYCQQYSTVPWTFGQGTKVEIKRTVAAPDIQMTQSPSSLSASVGDRVTITCRASQDVSTAVAWYQQKPGKAPKLLIYSASFLYSGVPSRFSGSGSGTDFTLTISSLQPEDFATTYYCQQSYTGTVTFGQGTKVEIKRTVAAPSVFIFPPSDEQLKSGTASVVCLLNNFYPREAKVQWKVDNALQSGNSQESVTEQDSKDSTYSLSSTLTLSKADYEKHKVYACEVTHQGLSSPVTKSFNRGEC
notes: DVD-Ig; also called VEGF / DLL4 DVD-Ig; DVD043H
[6]
  EC50: 0.5 nM
Biotinylated VEGF
  EC50: 0.2 nM

B9: DVD033 (bispecific antibody, human IgG1, kappa)
heavy: not shown
light: DVVMTQSPLSLPVTPGEPASISCRSSQSLLHSNGFNYVDWYLQKPGQSPHLLIYFGSYRASGVPDRFSGSGSGTDFTLKISRVEAEDVGVYYCMQALQTPPWTFGQGTKVEIRRTVAAPDIQMTQSPSSVSASVGDRVTITCRASQGISSWLAWYQQKPGKAPNLLIYEASSLQSGVPSRFGGSGSGTDFTLTISSLQPEDFATYYCQQANGFPWTFGQGTKVEIKRTVAAPSVFIFPPSDEQLKSGTASVVCLLNNFYPREAKVQWKVDNALQSGNSQESVTEQDSKDSTYSLSSTLTLSKADYEKHKVYACEVTHQGLSSPVTKSFNRGEC
notes: DVD-Ig; also called RON / HGF DVD-Ig; DVD033H
[7]
  EC50: 2.5 nM

B10: DVD041 (bispecific antibody, human IgG1, lambda)
heavy: not shown
light: DIQMTQSPSSLSASVGDRVTITCSASQDISNYLNWYQQKPGKAPKVLIYFTSSLHSGVPSRFSGSGSGTDFTLTISSLQPEDFATYYCQQYSTVPWTFGQGTKVEIKRTVAAPQSVLTQPPSVSAAPGQKVTISCSGSSSNIENNHVSWYQQLPGTAPKLLIYDNNKRPSGIPDRFSGSKSGTSATLGITGLQTGDEADYYCETWDTSLSAGRVFGGGTKLTVLGQPKAAPSVTLFPPSSEELQANKATLVCLISDFYPGAVTVAWKADSSPVKAGVETTTPSKQSNNKYAASSYLSLTPEQWKSHRSYSCQVTHEGSTVEKTVAPTECS
notes: DVD-Ig; also called VEGF / IGF1,2 DVD-Ig; DVD041H
Biotinylated VEGF
  EC50: 0.7 nM
[8]
  EC50: 381 nM
[9]
  EC50: 7340 nM

B11: AB071 (antibody, human IgG1, kappa, L234A L235A, V domains shown)
VH: EVQLVESGGGLVQPGGSLRLSCAASGFTINASWIHWVRQAPGKGLEWVGAIYPYSGYTNYADSVKGRFTISADTSKNTAYLQMNSLRAEDTAVYYCARWGHSTSPWAMDYWGQGTLVTVSS
VL: DIQMTQSPSSLSASVGDRVTITCRASQVIRRSLAWYQQKPGKAPKLLIYAASNLASGVPSRFSGSGSGTDFTLTISSLQPEDFATYYCQQSNTSPLTFGQGTKVEIKR
notes: also called AB071VH; AB071VL
VEGF
  EC50: 20.9 nM

B12: AB071 (antibody, human IgG1, kappa, L234A L235A, V domains shown)
VH: EVQLVESGGGLVQPGGSLRLSCAASGFTINASWIHWVRQAPGKGLEWVGAIYPYSGYTNYADSVKGRFTISADTSKNTAYLQMNSLRAEDTAVYYCARWGHSTSPWAMDYWGQGTLVTVSS
VL: DIQMTQSPSSLSASVGDRVTITCRASQVIRRSLAWYQQKPGKAPKLLIYAASNLASGVPSRFSGSGSGTDFTLTISSLQPEDFATYYCQQSNTSPLTFGQGTKVEIKR
notes: Vectors V7/V2
VEGF 1-165 aa
  EC50: 40.4 nM and 80.4 nM and 79.5 nM

B13: AB005 (anti-RON (seq. 1) parent antibody) (antibody, IgG1, V domains shown)
VH: EVQLVQSGGGLVKPGGSLRLSCAASGFTFSSYAMHWVRQAPGKGLEWVAVISYDGSNKYYADSVKGRFTISRDNSKNTLYLQMNSLRAEDTAVYYCARFSGWPNNYYYYGMDVWGQGTTVTVSS
VL: DVVMTQSPLSLPVTPGEPASISCRSSQSLLHSNGFNYVDWYLQKPGQSPHLLIYFGSYRASGVPDRFSGSGSGTDFTLKISRVEAEDVGVYYCMQALQTPPWTFGQGTKVEIRR
notes: HC vector V1 (wild-type hIgG1 constant), LC vector V2 (kappa constant); also called AB005VH; AB005VL
[10]
  EC50: 0.26 nM and 0.21 nM

B14: AB005 (antibody, human IgG1, kappa, V domains shown)
VH: EVQLVQSGGGLVKPGGSLRLSCAASGFTFSSYAMHWVRQAPGKGLEWVAVISYDGSNKYYADSVKGRFTISRDNSKNTLYLQMNSLRAEDTAVYYCARFSGWPNNYYYYGMDVWGQGTTVTVSS
VL: DVVMTQSPLSLPVTPGEPASISCRSSQSLLHSNGFNYVDWYLQKPGQSPHLLIYFGSYRASGVPDRFSGSGSGTDFTLKISRVEAEDVGVYYCMQALQTPPWTFGQGTKVEIRR
[11]
  EC50: 1.6 nM and 0.7 nM and 1.3 nM

— patent US20100260668A1 (published 2010)
